For experiment [1], the target named is T1, PDL1 on A-375 melanoma cells, HCT-15 colorectal cancer cells and A549 lung cancer cells (UniProt Q9NZQ7 19-290, limits assumed).
T1 construct: whole, on cells
Description: flow cytometry, A549 cells, MFI [panel B]. The procedure: (2) The tumor cells were diluted to 2×10⁶/ml with PBS and added to a 1.5 ml EP tube at a volume of 100 μl/tube, and goat serum was added thereto at 10 μl/tube. The cells were blocked at 4° C. for 30 min. The serially diluted bispecific antibodies, Cross3×Trop2, Cross303×Trop2, Cross307×Trop2, Cross308×Trop2, Cross309×Trop2, Cross310×Trop2, Cross311×Trop2, Cross312×Trop2, Cross313×Trop2, Cross314×Trop2, Cross316×Trop2, Cross317×Trop2, Cross318×Trop2, Cross323×Trop2, Cross325×Trop2, Cross326×Trop2, and Cross3×PDL1, Cross303×PDL1, Cross307×PDL1, Cross308×PDL1, Cross309×PDL1, Cross310×PDL1, Cross311×PDL1, Cross312×PDL1, Cross313×PDL1, Cross314×PDL1, Cross316×PDL1, Cross317×PDL1, Cross318×PDL1, Cross323×PDL1, Cross325×PDL1, Cross326×PDL1, and control hIgG1LALA (purchased from Bio-Tech) were added and incubated at 4° C. for 30 min. 1 ml of PBS was added to the EP tube, followed by centrifugation at 3500 rpm for 5 min at 4° C. The supernatant was discarded, and the cells were washed again with PBS. After centrifugation, the supernatant was completely discarded, and the cells were resuspended with PBS at 100 μl/tube. Alexa-647-labeled goat anti-human IgG secondary antibody (purchased from Jackson lab) was added at 1 μl/tube and incubated at 4° C. in the dark for 30 min. The cells were washed twice with PBS, and the supernatant was completely discarded after centrifugation. The cells were resuspended with PBS at 200 μl/tube and assay was performed using the flow cytometry.
On the technique in general: A flow cytometer gives signals particle by particle.

The target in another experiment is T2, PDL1 protein (UniProt Q9NZQ7 19-238).
T2 construct: Bought recombinant protein
T2 sequence (Q9NZQ7 19-238 limits assumed): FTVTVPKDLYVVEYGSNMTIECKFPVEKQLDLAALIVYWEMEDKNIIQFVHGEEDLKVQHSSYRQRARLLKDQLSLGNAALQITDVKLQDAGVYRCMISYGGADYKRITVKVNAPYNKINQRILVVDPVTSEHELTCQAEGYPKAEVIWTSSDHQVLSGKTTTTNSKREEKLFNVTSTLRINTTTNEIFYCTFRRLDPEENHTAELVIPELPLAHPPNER
Briefly: ELISA, coated PDL1 protein, OD450 [panel B]. The procedure: (3) PDL1 protein (purchased from Acro) was diluted to 2 μg/ml with PBS buffer, added to a 96-well plate at a volume of 100 μL/well, and placed at 4° C. overnight. The PBS buffer in the 96-well plate was aspirated, and the plate was washed 6 times with PBST (pH 7.2 PBS containing 0.10% Tween 20) buffer. Then, PBS/10% BSA was added at 200 μL/well and incubated at 37° C. for 2 h for blocking. The blocking solution was removed, and the plate was washed six times with PBST. Then, the to-be-tested bispecific antibodies serially diluted with PBST/0.05% BSA, Cross3×PDL1, Cross303×PDL1, Cross307×PDL1, Cross308×PDL1, Cross309×PDL1, Cross310×PDL1, Cross311×PDL1, Cross312×PDL1, Cross313×PDL1, Cross314×PDL1, Cross316×PDL1, Cross317×PDL1, Cross318×PDL1, Cross323×PDL1, Cross325×PDL1, Cross326×PDL1, and control IgG1LALA (purchased from Bio-Tech) were added at 100 μL/well, and incubated at 37° C. for 1 h. The reaction system was removed, and the plate was washed 6 times with PBST. Then, the cells were incubated at 37° C. for 1 h with HRP (horseradish peroxidase)-labeled anti-human secondary antibody (Fab specific) (purchased from Sigma) serially diluted with PBST/0.05% BSA at 100 μL/well. After the plate was washed six times with PBST, TMB (tetramethylbenzidine) was added at 80 μL/well and incubated at room temperature for 3 min. 4 M sulfuric acid was added at 80 μL/well to terminate the reaction. The absorbance was read at 450 nm using a microplate reader.
On the technique in general: An ELISA detects its analyte on a solid surface through an enzyme-linked reagent.

Experiment [2] concerns the target T3, CD3E&D protein (UniProt P04234 22-105).
T3 construct: Purchased from Acro; also called CD3 E&D antigens; CD3E&D antigen protein
Briefly: SPR (Biacore 8K), antibody on CM5 chip, CD3 E&D antigen as analyte. The arrangement: Fold change: reference not given here. On the procedure:
In a Biacore 8K (Cytiva) system, the antibody was diluted to 10 μg/mL in HBS-EP running buffer and coupled to a CM5 chip (Cytiva) at a flow rate of 10 μL/min.

The target of experiment [3] is T3, CD3E&D protein. Description: ELISA, coated CD3E&D protein, OD450 [panel A]. On the procedure:
In this example, the binding properties of the parental antibody Cross3 and the CD3 affinity-reduced antibody (the production method and the amino acid sequences of the heavy and light chains were shown in Example 1) were detected by ELISA. The CD3E&D protein was coated onto a 96-well plate by the inventors, and the strength of the signal after the addition of the antibody was used to determine the binding properties of the antibody and CD3E&D.
CD3E&D protein (purchased from Acro) was diluted to 2 μg/ml with PBS buffer, added to a 96-well plate at a volume of 100 μL/well, and placed at 4° C. overnight. The PBS buffer in the 96-well plate was aspirated, and the plate was washed 6 times with PBST (pH 7.2 PBS containing 0.1% Tween 20) buffer. Then, 200 μL/well PBS/10% BSA was added and incubated at 37° C. for 2 h for blocking. The blocking solution was removed, and the plate was washed six times with PBST. Then, the to-be-tested antibodies serially diluted with PBST/0.05% BSA, Cross3, Cross303, Cross307, Cross308, Cross309, Cross310, Cross311, Cross312, Cross313, Cross314, Cross316, Cross317, Cross318, Cross323, Cross325, Cross326, and control IgG1 (purchased from Bio-Tech) were added at 100 μL/well, and incubated at 37° C. for 1 h. The reaction system was removed, and the plate was washed 6 times with PBST. Then, the cells were incubated at 37° C. for 1 h with HRP (horseradish peroxidase)-labeled anti-human secondary antibody (Fab specific) (purchased from Sigma) serially diluted with PBST/0.05% BSA at 100 μL/well. The plate was washed six times with PBST, TMB (tetramethylbenzidine) was added at 80 μL/well and incubated at room temperature for 3 min. 4 M sulfuric acid was added at 80 μL/well to terminate the reaction. The absorbance was read at 450 nm using a microplate reader.

Another experiment concerns the target T4, CD3 on CD8 T cells (Homo sapiens (Human), UniProt P07766 23-207).
T4 construct: Native CD3 complex on CD8 T cells among PBMCs; also called T cells (PBMCs gated with anti-human CD8 antibody)
Briefly: flow cytometry, CD8 T cells in PBMCs, binding ratio % [panel A]. The procedure: PBMCs were diluted with PBS to 2×10⁶/mL and added to a 1.5 ml EP tube at a volume of 100 μL/tube, 10 μL/tube of goat serum was added thereto and incubated at 4° C. for 30 min for blocking. […] 1 mL of PBS was added to the EP tube, followed by centrifugation at 3500 rpm for 5 min at 4° C. The supernatant was discarded, and the cells were washed again with PBS. After centrifugation, the supernatant was discarded, and the cells were resuspended with 100 μl/tube PBS. 1 μl/tube Alexa-647-labeled goat anti-human secondary antibody (purchased from Jackson lab) and 0.5 μl/tube PerCP-Cy5.5-labeled anti-human CD8 antibody were added and incubated at 4° C. in the dark for 30 min. The cells were washed twice with PBS, and the supernatant was discarded after centrifugation. The cells were resuspended with […] of PBS and assayed using the flow cytometry.

These results are taken from patent US20260125472A1 (HEFEI TG IMMUNOPHARMA, published 2026).

T3 sequence (chain, as listed by the source limits assumed, chain 1 of 2): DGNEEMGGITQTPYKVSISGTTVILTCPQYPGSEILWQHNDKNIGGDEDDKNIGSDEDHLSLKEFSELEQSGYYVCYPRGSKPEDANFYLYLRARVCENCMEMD
T3 sequence (P04234 22-105 limits assumed, chain 2 of 2): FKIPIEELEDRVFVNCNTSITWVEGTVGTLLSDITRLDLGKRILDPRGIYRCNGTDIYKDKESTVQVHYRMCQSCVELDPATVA
T4 sequence (P07766 23-207 limits assumed): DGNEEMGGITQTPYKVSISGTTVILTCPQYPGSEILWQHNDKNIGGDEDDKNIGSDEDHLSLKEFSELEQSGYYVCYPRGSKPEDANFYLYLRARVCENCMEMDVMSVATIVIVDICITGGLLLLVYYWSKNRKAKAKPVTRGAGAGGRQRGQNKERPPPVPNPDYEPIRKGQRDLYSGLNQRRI
T1 sequence (Q9NZQ7 19-290 limits assumed): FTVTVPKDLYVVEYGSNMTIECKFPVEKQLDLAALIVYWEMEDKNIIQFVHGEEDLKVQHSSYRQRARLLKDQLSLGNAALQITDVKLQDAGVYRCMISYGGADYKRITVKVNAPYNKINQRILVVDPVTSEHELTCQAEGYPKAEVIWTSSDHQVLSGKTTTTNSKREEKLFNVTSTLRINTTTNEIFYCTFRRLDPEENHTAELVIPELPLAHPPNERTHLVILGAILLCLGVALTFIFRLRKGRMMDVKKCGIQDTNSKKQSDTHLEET

B1: Cross317×PDL1 (bispecific antibody, human IgG1, kappa, L234A L235A)
scFv: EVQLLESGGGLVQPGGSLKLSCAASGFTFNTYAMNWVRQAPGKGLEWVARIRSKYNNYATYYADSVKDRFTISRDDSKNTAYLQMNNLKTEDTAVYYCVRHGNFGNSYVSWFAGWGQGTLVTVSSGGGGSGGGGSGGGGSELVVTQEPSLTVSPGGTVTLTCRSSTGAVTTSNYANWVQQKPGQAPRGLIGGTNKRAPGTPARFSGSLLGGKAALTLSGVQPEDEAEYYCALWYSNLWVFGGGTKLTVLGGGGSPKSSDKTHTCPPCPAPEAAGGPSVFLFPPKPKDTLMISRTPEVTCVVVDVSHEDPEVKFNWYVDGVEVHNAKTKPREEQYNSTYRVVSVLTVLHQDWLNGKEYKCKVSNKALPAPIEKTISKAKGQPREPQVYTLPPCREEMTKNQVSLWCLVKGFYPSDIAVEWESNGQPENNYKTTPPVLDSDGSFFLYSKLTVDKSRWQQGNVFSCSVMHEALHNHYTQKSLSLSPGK
heavy: QVQLVQSGAEVKKPGASVKVSCKASGYSFTGYYMHWVRQAPGQGLEWIGRINPYNGATTYSQNFKDRATMTVDTSISTAYMELSRLRSDDTAVYYCVPTGMGYFLMDYWGQGTLVTVSSASTKGPSVFPLAPSSKSTSGGTAALGCLVKDYFPEPVTVSWNSGALTSGVHTFPAVLQSSGLYSLSSVVTVPSSSLGTQTYICNVNHKPSNTKVDKKVEPKSCDKTHTCPPCPAPEAAGGPSVFLFPPKPKDTLMISRTPEVTCVVVDVSHEDPEVKFNWYVDGVEVHNAKTKPREEQYNSTYRVVSVLTVLHQDWLNGKEYKCKVSNKALPAPIEKTISKAKGQPREPQVCTLPPSREEMTKNQVSLSCAVKGFYPSDIAVEWESNGQPENNYKTTPPVLDSDGSFFLVSKLTVDKSRWQQGNVFSCSVMHEALHNHYTQKSLSLSPGK
light: DIQLTQSPSFLSASVGDRVTITCKASQDVGSAVVWYQQKPGKAPKLLIYWASTRHTGVPSRFSGSGSGTEFTLTISSLQPEDFATYFCQQFTSYPTFGQGTKLEIKRTVAAPSVFIFPPSDEQLKSGTASVVCLLNNFYPREAKVQWKVDNALQSGNSQESVTEQDSKDSTYSLSSTLTLSKADYEKHKVYACEVTHQGLSSPVTKSFNRGEC
As to B1, the concentration for a half-maximal effect (EC50 (read off the curve)) – broadly, the concentration giving half of the maximal effect – in experiment [1] is approximately 1 µg/mL; with PDL1 protein, approximately 0.2 µg/mL.

B2: Cross303 (antibody, human IgG1, kappa, V domains shown)
VH: EVQLLESGGGLVQPGGSLKLSCAASGFTFNTYAMNWVRQAPGKGLEWVARIRSKYNNYATYYADSVKDRFTISRDDSKNTAYLQMNNLKTEDTAVYYCVRHGMFGNSYVSWFAYWGQGTLVTVSS
VL: ELVVTQEPSLTVSPGGTVTLTCRSSTGAVTTSNYANWVQQKPGQAPRGLIGGTNKRAPGTPARFSGSLLGGKAALTLSGVQPEDEAEYYCALWYSNLWVFGGGTKLTVLR
In the case of B2, in the experiment with CD3E&D protein [2], the Fold change stood at 12.7; the affinity, expressed as Kd, was 2.09 nM; the koff (in general, the first-order rate constant of dissociation) turned out to be 0.0991 s⁻¹; the kon (in general, the rate constant with which the complex forms) came out at 4.75e+07 M⁻¹ s⁻¹. In addition, in the experiment with CD3E&D protein [3], the “EC50 (read off the curve)” value is approximately 0.03 µg/mL.

B3: Cross310 (antibody, human IgG1, kappa, V domains shown)
VH: EVQLLESGGGLVQPGGSLKLSCAASGFTFNTYAMNWVRQAPGKGLEWVARIRSKYNNYATYYADSVKDRFTISRDDSKNTAYLQMNNLKTEDTAVYYCVRHGNFGNYYVSWFAYWGQGTLVTVSS
VL: ELVVTQEPSLTVSPGGTVTLTCRSSTGAVTTSNYANWVQQKPGQAPRGLIGGTNKRAPGTPARFSGSLLGGKAALTLSGVQPEDEAEYYCALWYSNLWVFGGGTKLTVLR
With B3, in the experiment with CD3E&D protein [2], the Fold change amounted to 16.8; the Kd (in general, the concentration at which binding is half-saturated) amounted to 2.77 nM; the koff was determined as 0.00613 s⁻¹; the kon came to 2.22e+06 M⁻¹ s⁻¹. Moreover, the “EC50 (read off the curve)” value in the experiment with CD3E&D protein [3] was approximately 0.03 µg/mL. Moreover, the “EC50 (read off the curve)” value with CD3 on CD8 T cells was approximately 0.3 µg/mL.

B4: Cross309 (antibody, human IgG1, kappa, V domains shown)
VH: EVQLLESGGGLVQPGGSLKLSCAASGFTFNTYAMNWVRQAPGKGLEWVARIRSKYNNYATYYADSVKDRFTISRDDSKNTAYLQMNNLKTEDTAVYYCVRHGNFGNVYVSWFAYWGQGTLVTVSS
VL: ELVVTQEPSLTVSPGGTVTLTCRSSTGAVTTSNYANWVQQKPGQAPRGLIGGTNKRAPGTPARFSGSLLGGKAALTLSGVQPEDEAEYYCALWYSNLWVFGGGTKLTVLR
As to B4, in the experiment with CD3E&D protein [2], the Fold change was 11.1, binding was characterised by a dissociation constant (Kd) of 1.83 nM, the koff is 0.0124 s⁻¹ and the kon is 6.76e+06 M⁻¹ s⁻¹. In the experiment with CD3E&D protein [3], the “EC50 (read off the curve)” value was approximately 0.03 µg/mL. Further, in the experiment with CD3 on CD8 T cells, the “EC50 (read off the curve)” value was approximately 0.4 µg/mL.

B5: Cross307 (antibody, human IgG1, kappa, V domains shown)
VH: EVQLLESGGGLVQPGGSLKLSCAASGFTFNTYAMNWVRQAPGKGLEWVARIRSKYNNYATYYADSVKDRFTISRDDSKNTAYLQMNNLKTEDTAVYYCVRHGNFGNEYVSWFAYWGQGTLVTVSS
VL: ELVVTQEPSLTVSPGGTVTLTCRSSTGAVTTSNYANWVQQKPGQAPRGLIGGTNKRAPGTPARFSGSLLGGKAALTLSGVQPEDEAEYYCALWYSNLWVFGGGTKLTVLR
For the molecule B5, in the experiment with CD3E&D protein [2], the Fold change was 21, binding was characterised by a dissociation constant (Kd) of 3.47 nM, the koff is 0.00473 s⁻¹ and the kon worked out at 1.36e+06 M⁻¹ s⁻¹. Also, the “EC50 (read off the curve)” value in the experiment with CD3E&D protein [3] is approximately 0.03 µg/mL.

B6: Cross308 (antibody, human IgG1, kappa, V domains shown)
VH: EVQLLESGGGLVQPGGSLKLSCAASGFTFNTYAMNWVRQAPGKGLEWVARIRSKYNNYATYYADSVKDRFTISRDDSKNTAYLQMNNLKTEDTAVYYCVRHGNFGNPYVSWFAYWGQGTLVTVSS
VL: ELVVTQEPSLTVSPGGTVTLTCRSSTGAVTTSNYANWVQQKPGQAPRGLIGGTNKRAPGTPARFSGSLLGGKAALTLSGVQPEDEAEYYCALWYSNLWVFGGGTKLTVLR
In the experiment with CD3E&D protein [2], B6 returned a Fold change of 11.8, a Kd of 1.95 nM, a koff of 0.0209 s⁻¹ and a kon of 1.07e+07 M⁻¹ s⁻¹. Moreover, the “EC50 (read off the curve)” value in the experiment with CD3E&D protein [3] was approximately 0.03 µg/mL.
